Laboratory results taken from the NTF2 design screens of Basanta et al. (2020).

Test: protease stability score; higher = more stable; yeast display proteolysis, trypsin and chymotrypsin;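 also: log10 excess protease needed over predicted unfolded state with 0 meaning unfolded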

DEEKDEDFARKVLQAVQTGDHDKIKKMADPNASATIGDKTWHGREQLSEAIRRWKEEADRVDVKSVSVQGDRASADMKVQHNGKMTDVRVFVEASNGRLKKLEIDTK
protease stability score: 1.16

EEHVLTRFNSNMSNNNFNHIRDMADENAKMRVGDQEYHGRDNIHRLLEELKTQADHIQVRDYNHRGEHVHVDVEMVINGQKLVARWHAEIKNGRIKEMVLQFTNEEQEKTVRKALR
protease stability score: 0.302

DEHAEDLFRQLKEAEDTGDEDHFRRLVDPNAHFEIGNKHVHGREERATQMKQQKKQIRVEIKSMDYRVDGEKVEARVDATYNFNGRPDRMHIVIDIEFHNGRVTNARYRLDEEDLKRVEK
protease stability score: 0.308

DSRELDEFIHKFAQVIRKGNPRDAMKNVDKDARAVVGNKHINGRDQFHKWIEDLNKTIDHFEIVHVEVEGDRALMDVQVNINGKTRRIRLTAHVHNGRFKDVRVDPENERKLNQ
protease stability score: 0.011

DDHNIQRLKQFLDDWERGDPDKLKDLVDPNVEFRIGEREVHGMDHWATQLTEERRDQRFQLKDMRVQERPGRVEVRLDYEQDHNGKPERQIVKFVAQATNGELKWVNWTRDS
protease stability score: -0.017

DREDHEHARTVFHNLQTGDFEEVKSLLDKNAKLTVGDRVLEGRDEIARQIRNELEEIRVEYVSVTFTVEGDKAQVHMVFKAEWNGNPADVRNVLRISQHNGRIKTMFIQISESQLEEYNR
protease stability score: 0.287

DEEHNQRLAERVAKVVQSGDEEEFEKQADPNVKVVYGDKTYHGNSEAMNAIKQIRKQADTVSVQSVDVHGDTARIQMRFDVNGKDRIVKVTVQVDNGRVVEVRFHET
protease stability score: 1.12

DERENKKHAEQLARVFQTGDHDQLRKMMPPDAKAQVGDKEYQGRDSVLHDIKRFLRQADSITIQSVTVQGNTLNIHIQLDINGKDFQAVIEVEMHNGKVVRIVIKES
protease stability score: -0.044

DDELEEQVKKWLENLKNNNEEELQKQMDPNAKMQYGDKEYHGMHDALKTLAQEDRELRYNVRIISINVQGDRVHITRRINRDHDGRPSQKKYKLNLRLHNGRNQHFREQEDG
protease stability score: -0.102

DEQEVREAAEVIVTGNEEQLRDNADPNVKLQVGDERYHGREHFVRMISKFQKQVDHRSVDHFHVKGDKVRINMVMHINGQHVVLQINAQIHNGRIKSMEIKVRDEKDKRILDQVEG
protease stability score: 1.76

DEHFETVARLMLHALEDNNPEVLRENLDPNARVQVGDQDLTGRDTVVKVAHRLLTEIRIHIQIDSVRNQGDTVEFDAKFRANVNGRPYSVKVVIVYVVRNGRAVHIQVRMDPDFLRKLRK
protease stability score: 0.938

DEKKALEIAEKVARYVAEGNSDKAKELGKEGVEAKVGDTTVHGPDQLKEYVKKVKDQGNRYEYKETHKEGNTVQFKTEVEKGNAKVEFTAEYQVEGDKLVRAEVRFNKEQQKKFQKS
protease stability score: -0.214

DEEAVKTLEHMFEAVRDGNPDEVKKQVDPNVKIEIGDKTYKGKDQWAQDVETKKDEMRFTYHSIEFKNEPNRVKISIDRTETHNGQPRRHHVDMEARVHNGVIVRMKAKESG
protease stability score: -0.124

DDTAMRVYQEIVKALQTGDPDKVRNNFDENVEYHVGDTKVHGRDEALERIKKRMDEIRVEIQLQKVETQGDKVIVRARYVNETNGKPKQSNNNIIFKVKNGKMTHMQEREDS
protease stability score: -0.045

DEEAQELAERVFKALQTGDPDTLVKNMDPNVRLDVGDKKIQGREEAKKHADRLRHEQKVEYDSYEVRVHDGRVVVRLHWKFTVNGHPRTLTLTVEMKAHNGKVKHFSQRVPEDVLRKMKS
protease stability score: -0.049

DEEIERRVENRLKALEEGDEDKVRDNVDPNVRIHVGDKVWHGREHARDFARQQKEHARRKVDEYSVRVNNGKLSVKQRFKEDRNGQPREDHQQYSADIHNGTLKDMTVTKDG
protease stability score: 0.608

DEKANTQAKRLLDVMNSGDEEKILRQMDEDVEVVIGDTKVKGREDIRRWMQKVLKELRVVYDLKHLRAHNGKIDIKAKMHNNHNGQPNSNDVIIIAKIHNGRFKHFEVHTQS
protease stability score: 0.804

DDRVADLLRKWWEAVRTGDPDRAANQVDPNAKVEYGDKQVHGREQIRTELDERKRNAKFEYKIKTYNKDEDHVKVEAEAVVVINGRPHKFTYQVHARADGDKIKHMRIELPEDVLHEMQG
protease stability score: 0.553

DEEDQRTIAKEVVKVMETGDEDRMRELVDEDVKVQYGDKTVHGREQAQRAMKDLRRRADHITMDSVTVHNGEITIKAQLKYNGQNQRVVVQVRVHNGKIKEFRFREQ
protease stability score: 1.34

DESVENTVTEILEAEQQNNEEELRRLADPNAEVRVGEKTIHGMDEAVHQIAHELKQQRVEYSDMKISVNNGRARIDVEVEVEKNGRPHTSHYERTIEMHNGRMTHMEQRDDG
protease stability score: -0.524

DEEDVKRAVEIFNTNNEEDLRRLVDKHAKITVGDKDVHGRKTAETLIHKLNSQADRIHLESVHKNGEQVVIKMVADVNGEKLDFQIVFVIKNGRLTSQRNVARNEDVERTLKNLYS
protease stability score: -0.119

EEEDVETAKQFIEAEEKGDEDRLVELADPNARFNVGDKNLHGREHAAREMRKHQEEADLRLEDVRLDVHNGRVDIELVFTHRHNGQPTRQKVKLTFEQHNGQLTHVQNDETK
protease stability score: 0.558

DRDLNRHVKRFMDIIQNGDPDKAMEMVDPNVEFHVGDKRVHGQEELRELIKKEHDEQRKEIDDMRYDDRGSKAKINIEVRVEHNGRPNTVREDWNVEAKNGKIKRMNAKVDQ
protease stability score: -0.495

DEEEIATENAQRFINAVNKNNPDEFVKNMDEDVRIEYGDKVVHGRSQAKHLANEMVDKVDHLTARITDFKVHNGEVDVNVRITFRHNGRNDTHHVRLHLQVHNGRLHIQSMKWS
protease stability score: -0.412

DEEAIDLANRFLEARKTGDPDKAREQADPNATFKYGDREVHGMDEMARQIEHEHKESRVNIDVDRVTDTGDTAKFDMSVRENHNGQPHTVKMDMVVKAHNGHIKHLSYTLNG
protease stability score: -0.514

DEEDADRILKLLKKNNFEELARNADPNVHVRIGDTRIHGREEVTSHMKRLTDRIDHVDWRSMSVTGDRVVVRAVYTVNGDRIDFEIEIQFHNGRVVSVRFQARDEDDKHKYRKAEK
protease stability score: 0.428

DRERRHEFATEVVENLKQGDWKRLVEQADKDVTADIGDTKYKGRETFSKWAQQFVRRVDRVEIVDMRLDGDEVRINMDVKHNGQTRRSVFIARWHNGRIKHFRIETG
protease stability score: 1.62

EERDEAENAIRRFLEAVEEGDEDNLREQADPNAKFDVGDKTVHGMKSYARQQIEERERIDHVDYRISSVRLEGNRADVKVKFKARVDGRTKTATATINMQRHNGRMKIKEMKIN
protease stability score: 0.018

DEEEHAKEFVKRLDKVNKKNDEESFEDLADENATFRYGDKTYRGREDMRKLVQDLRKRADHADVKLTRLELHNGQVRAEIDMRFRHDGRTHKDVFDAQLKVTNGTVKLTNLNQS
protease stability score: -0.059

DERHAHTVVKKIIDALHTGDEDTLRHLADKDVRLQVGEKEVHGREEFAKEMSKFHKRVDHMEIKDVTNTGDHASVKYSAKFDGKTFNARADLVVHNGKLKKMHIDPERQKQMDS
protease stability score: 0.535

DEKEQTDILLRAMQILTHGDEKRFEELADPNVHVDVGDKTVHGRTQARKWYHDLRRQVDRIHIKHVTVKNGRATIDVVFDRNGRKEKMVLVIQAHNGKIKRAKVEES
protease stability score: -0.125

EESVIKRIHQLMESNDWDQLVRQMDEDAKVEIGNFRVEGREEAEDWARKVKKQVDHLEVEDIQIRGNKVEVTMNVQVNGKTVRFDLVMEVRNGRVTSMSARFRSEDDVKIMEEMLK
protease stability score: 1.15

DEEAERIIERYLEAVKTNDPEQMKEMADPNVKVKVGDKVIHGMEDAVKKVQHRLDEQRVEIKHVTLKVRNGRVNVEADVVVTHNGRPDRSKYHIDMEAHNGSAVYVRITDVS
protease stability score: 1.38

DQHEQQKLAENVQKVLRKGDESRFQRLVDPNAKMTYGDKSLTGHERFRKWMQEFRHHADHVEFKEVSIHNGKLNMHAVIDVNGHKQTFVMHFQFHNGTVQHVEQTQT
protease stability score: 0.289

DEQNLQDAAQRVDEVLRKGNEEDVTKMMDKDATMTVGDKVIHGRSKVRQQVRRLHEQVDHQEVEYVTAHNGRIKINMQADVNGQSLTFTVHIKVRNGRVKEIQIDPDYKRNLDR
protease stability score: -0.224

DEEQLQREANEYNKLRRHGDPDRIVELADPNARAHVGDKRVHGREDMKRMVEEERKHADHITFTDFRVDGDKLEILFVITHNGQSDTRIMTIQWDNGKIKRLEVKNN
protease stability score: 0.381
